Assay results: article PMC4291175 (Nature protocols, 2014)

Legend:
[1] = molecular target: GluCl-EGFP (Caenorhabditis elegans glutamate-gated chloride channel, EGFP gene fusion) (Caenorhabditis elegans) (UniProt G5EBR3); assay: SEC
SEC = molecular target: the molecule itself; assay: SEC

GluCl-EGFP (Caenorhabditis elegans glutamate-gated chloride channel, EGFP gene fusion), sequence (G5EBR3 21-461): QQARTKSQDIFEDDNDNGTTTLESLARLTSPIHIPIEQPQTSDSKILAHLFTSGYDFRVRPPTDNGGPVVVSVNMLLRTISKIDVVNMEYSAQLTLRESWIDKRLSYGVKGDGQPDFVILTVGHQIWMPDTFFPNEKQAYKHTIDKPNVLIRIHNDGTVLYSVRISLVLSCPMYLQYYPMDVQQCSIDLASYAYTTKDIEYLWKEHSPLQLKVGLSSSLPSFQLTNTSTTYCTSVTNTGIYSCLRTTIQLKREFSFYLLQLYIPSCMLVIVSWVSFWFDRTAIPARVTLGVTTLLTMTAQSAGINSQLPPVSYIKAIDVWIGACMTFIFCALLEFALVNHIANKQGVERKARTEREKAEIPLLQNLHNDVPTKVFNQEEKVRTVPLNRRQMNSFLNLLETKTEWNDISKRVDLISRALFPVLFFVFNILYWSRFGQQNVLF

stoichiometry N [1]	Molecule	stoichiometry N (SEC)
5	GluCl-EGFP (Caenorhabditis elegans glutamate-gated chloride channel, EGFP gene fusion) (from UniProt G5EBR3 21-461) (natural protein)	
	cASIC463 (chicken acid-sensing ion channel 1a truncated 64 residues from the carboxy terminus), N-terminal eGFP tagged (domain or fragment, Gallus gallus, UniProt Q1XA76 1-463, looked up) MMDLKVDEEEVDSGQPVSIQAFASSSTLHGISHIFSYERLSLKRVVWALCFMGSLALLALVCTNRIQYYFLYPHVTKLDEVAATRLTFPAVTFCNLNEFRFSRVTKNDLYHAGELLALLNNRYEIPDTQTADEKQLEILQDKANFRNFKPKPFNMLEFYDRAGHDIREMLLSCFFRGEQCSPEDFKVVFTRYGKCYTFNAGQDGKPRLITMKGGTGNGLEIMLDIQQDEYLPVWGETDETSFEAGIKVQIHSQDEPPLIDQLGFGVAPGFQTFVSCQEQRLIYLPPPWGDCKATTGDSEFYDTYSITACRIDCETRYLVENCNCRMVHMPGDAPYCTPEQYKECADPALDFLVEKDNEYCVCEMPCNVTRYGKELSMVKIPSKASAKYLAKKYNKSEQYIGENILVLDIFFEALNYETIEQKKAYEVAGLLGDIGGQMGLFIGASILTVLELFDYAYEVIKHR	3
